Columns and labels:
Type in all cases: in vivo
Sprague-Dawley rats = assay: Example 35: duration after IM EPO mRNA in rats, serum EPO (Table 61); details: rats IM 100 μg, 24, 48 and 72 hour;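 also: serum concentration in pg/mL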
Description: The rats were bled 2, 6, 12, 24, 48 and 72 hours after the intramuscular injection to determine the concentration of human EPO in serum at a given time.

[1] = tested on: non-human primates (cynomolgus monkey); assay: Example 22: NHP hematology: neutrophils, reticulocytes, HGB, HCT, RBC (Tables 40-44)
Description: (§1) LNP formulations, shown in Table 33 (above), were administered to non-human primates (NHP) (cynomolgus monkey) (n=2) as intravenous injection (IV). The NHP were administered a single modified mRNA IV dose of 0.5 mg/kg, 0.05 mg/kg or 0.005 mg/kg of G-CSF or EPO in a dose volume of 0.5 mL/kg. The NHPs were bled before dosing with the modified mRNA LNP formulations to determine protein expression in the serum and a baseline complete blood count. After administration with the G-CSF modified mRNA formulation the NHP were bled at 8, 24, 48 and 72 hours to determined protein expression. After administration with the EPO modified mRNA formulation the NHP were bled at 8, 24, 48, 72 hours and 7 days to determined protein expression.
Samples collected from the NHPs after they were administered with G-CSF or EPO modified mRNA formulations were analyzed by ELISA to determine protein expression. Neutrophil and reticulocyte count was also determined pre-dose, 24 hours, 3 days, 7 days, 14 days and 18 days after administration of the modified G-CSF or EPO formulation.

[2] = tested on: non-human primates (cynomolgus monkey); assay: Example 22: NHP cytokine interferon-alpha (Table 47)
Description: as §1

[3] = 0.005 mg/kg, 14/18 days, Female NHP
[4] = 0.005 mg/kg, 14/18 days, Male NHP
[5] = 0.005 mg/kg, 24 hours, Female NHP
[6] = 0.005 mg/kg, 24 hours, Male NHP
[7] = 0.005 mg/kg, 3 days, Female NHP
[8] = 0.005 mg/kg, 7 days, Female NHP
[9] = 0.005 mg/kg, Pre-dose, Female NHP
[10] = 0.005 mg/kg, Pre-dose, Male NHP
[11] = 0.05 mg/kg, 14/18 days, Female NHP
[12] = 0.05 mg/kg, 14/18 days, Male NHP
[13] = 0.05 mg/kg, 24 hours, Female NHP
[14] = 0.05 mg/kg, Pre-dose, Female NHP
[15] = 0.5 mg/kg, 14/18 days, Female NHP
[16] = 0.5 mg/kg, 14/18 days, Male NHP
[17] = 0.5 mg/kg, 24 hours, Female NHP
[18] = 0.5 mg/kg, Pre-dose, Female NHP

## Luciferase: luciferase mRNA, SEQ ID NO: 14, Cap1, fully modified with 5-methylcytosine and pseudouridine
Sprague-Dawley rats
  human EPO in serum, Avg.: 37.2 pg/mL
  human EPO in serum, Geometric-mean: 29.2 pg/mL

B1: G-CSF: modified mRNA encoding human G-CSF, SEQ ID NO: 4, Cap1, fully modified with 5-methylcytosine and pseudouridine; LNP-formulated in Examples 16-22 (nucleic acid)
chain: GGGAAAUAAGAGAGAAAAGAAGAGUAAGAAGAAAUAUAAGAGCCACCAUGGCCGGUCCCGCGACCCAAAGCCCCAUGAAACUUAUGGCCCUGCAGUUGCUGCUUUGGCACUCGGCCCUCUGGACAGUCCAAGAAGCGACUCCUCUCGGACCUGCCUCAUCGUUGCCGCAGUCAUUCCUUUUGAAGUGUCUGGAGCAGGUGCGAAAGAUUCAGGGCGAUGGAGCCGCACUCCAAGAGAAGCUCUGCGCGACAUACAAACUUUGCCAUCCCGAGGAGCUCGUACUGCUCGGGCACAGCUUGGGGAUUCCCUGGGCUCCUCUCUCGUCCUGUCCGUCGCAGGCUUUGCAGUUGGCAGGGUGCCUUUCCCAGCUCCACUCCGGUUUGUUCUUGUAUCAGGGACUGCUGCAAGCCCUUGAGGGAAUCUCGCCAGAAUUGGGCCCGACGCUGGACACGUUGCAGCUCGACGUGGCGGAUUUCGCAACAACCAUCUGGCAGCAGAUGGAGGAACUGGGGAUGGCACCCGCGCUGCAGCCCACGCAGGGGGCAAUGCCGGCCUUUGCGUCCGCGUUUCAGCGCAGGGCGGGUGGAGUCCUCGUAGCGAGCCACCUUCAAUCAUUUUUGGAAGUCUCGUACCGGGUGCUGAGACAUCUUGCGCAGCCGUGAAGCGCUGCCUUCUGCGGGGCUUGCCUUCUGGCCAUGCCCUUCUUCUCUCCCUUGCACCUGUACCUCUUGGUCUUUGAAUAAAGCCUGAGUAGGAAG
modifications: Cap1, 5-methylcytosine, pseudouridine
[1]; 0.005 mg/kg IV, 14/18 days
  Female NHP HGB: 129 g/L
  Female NHP Neutrophils: 2.28 10^9/L
  Male NHP HGB: 118 g/L
  Male NHP Neutrophils: 4.31 10^9/L
[1]; 0.005 mg/kg IV, 24 hours
  Female NHP HGB: 127 g/L
  Female NHP Neutrophils: 8.6 10^9/L
  Male NHP HGB: 117 g/L
  Male NHP Neutrophils: 16.44 10^9/L
[1]; 0.005 mg/kg IV, 3 days
  Female NHP HGB: 127 g/L
  Female NHP Neutrophils: 1.78 10^9/L
  Male NHP HGB: 116 g/L
  Male NHP Neutrophils: 3.74 10^9/L
[1]; 0.005 mg/kg IV, 7 days
  Female NHP HGB: 129 g/L
  Female NHP Neutrophils: 2.27 10^9/L
  Male NHP HGB: 116 g/L
  Male NHP Neutrophils: 7.28 10^9/L
[1]; 0.005 mg/kg IV, Pre-dose
  Female NHP HGB: 129 g/L
  Female NHP Neutrophils: 2.54 10^9/L
  Male NHP HGB: 128 g/L
  Male NHP Neutrophils: 1.52 10^9/L
[1]; [3]
  HCT: 0.42 L/L
  RBC: 5.34 10^12/L
[1]; [4]
  HCT: 0.41 L/L
  RBC: 5.37 10^12/L
[1]; [5]
  HCT: 0.42 L/L
  RBC: 5.35 10^12/L
[1]; [6]
  HCT: 0.4 L/L
  RBC: 5.34 10^12/L
[1]; [7]
  HCT: 0.41 L/L
  RBC: 5.24 10^12/L
[1]; 0.005 mg/kg, 3 days, Male NHP
  HCT: 0.4 L/L
  RBC: 5.32 10^12/L
[1]; [8]
  HCT: 0.42 L/L
  RBC: 5.34 10^12/L
[1]; 0.005 mg/kg, 7 days, Male NHP
  HCT: 0.39 L/L
  RBC: 5.25 10^12/L
[1]; [9]
  HCT: 0.42 L/L
  RBC: 5.36 10^12/L
[1]; [10]
  HCT: 0.42 L/L
  RBC: 5.67 10^12/L
[1]; 0.05 mg/kg IV, 14/18 days
  Female NHP HGB: 123 g/L
  Female NHP Neutrophils: 1.82 10^9/L
  Male NHP HGB: 134 g/L
  Male NHP Neutrophils: 3.59 10^9/L
[1]; 0.05 mg/kg IV, 24 hours
  Female NHP HGB: 117 g/L
  Female NHP Neutrophils: 29.91 10^9/L
  Male NHP HGB: 122 g/L
  Male NHP Neutrophils: 19.92 10^9/L
[1]; 0.05 mg/kg IV, 3 days
  Female NHP HGB: 115 g/L
  Female NHP Neutrophils: 10.77 10^9/L
  Male NHP HGB: 126 g/L
  Male NHP Neutrophils: 7.49 10^9/L
[1]; 0.05 mg/kg IV, 7 days
  Female NHP HGB: 116 g/L
  Female NHP Neutrophils: 3.8 10^9/L
  Male NHP HGB: 126 g/L
  Male NHP Neutrophils: 4.13 10^9/L
[1]; 0.05 mg/kg IV, Pre-dose
  Female NHP HGB: 129 g/L
  Female NHP Neutrophils: 3.05 10^9/L
  Male NHP HGB: 137 g/L
  Male NHP Neutrophils: 13.74 10^9/L
[1]; [11]
  HCT: 0.4 L/L
  RBC: 5.26 10^12/L
[1]; [12]
  HCT: 0.44 L/L
  RBC: 5.43 10^12/L
[1]; [13]
  HCT: 0.4 L/L
  RBC: 5.08 10^12/L
[1]; 0.05 mg/kg, 24 hours, Male NHP
  HCT: 0.39 L/L
  RBC: 4.96 10^12/L
[1]; 0.05 mg/kg, 3 days, Female NHP
  HCT: 0.39 L/L
  RBC: 5.04 10^12/L
[1]; 0.05 mg/kg, 3 days, Male NHP
  HCT: 0.41 L/L
  RBC: 5.13 10^12/L
[1]; 0.05 mg/kg, 7 days, Female NHP
  HCT: 0.4 L/L
  RBC: 5.05 10^12/L
[1]; 0.05 mg/kg, 7 days, Male NHP
  HCT: 0.42 L/L
  RBC: 5.17 10^12/L
[1]; [14]
  HCT: 0.44 L/L
  RBC: 5.64 10^12/L
[1]; 0.05 mg/kg, Pre-dose, Male NHP
  HCT: 0.44 L/L
  RBC: 5.68 10^12/L
[1]; 0.5 mg/kg IV, 14/18 days
  Female NHP HGB: 113 g/L
  Female NHP Neutrophils: 1.98 10^9/L
  Male NHP HGB: 98 g/L
  Male NHP Neutrophils: 2.58 10^9/L
[1]; 0.5 mg/kg IV, 24 hours
  Female NHP HGB: 112 g/L
  Female NHP Neutrophils: 13.96 10^9/L
  Male NHP HGB: 113 g/L
  Male NHP Neutrophils: 14.92 10^9/L
[1]; 0.5 mg/kg IV, 3 days
  Female NHP HGB: 114 g/L
  Female NHP Neutrophils: 13.7 10^9/L
  Male NHP HGB: 118 g/L
  Male NHP Neutrophils: 9.76 10^9/L
[1]; 0.5 mg/kg IV, 7 days
  Female NHP HGB: 116 g/L
  Female NHP Neutrophils: 3.81 10^9/L
  Male NHP HGB: 115 g/L
  Male NHP Neutrophils: 2.74 10^9/L
[1]; 0.5 mg/kg IV, Pre-dose
  Female NHP HGB: 129 g/L
  Female NHP Neutrophils: 1.27 10^9/L
  Male NHP HGB: 133 g/L
  Male NHP Neutrophils: 1.53 10^9/L
[1]; [15]
  HCT: 0.37 L/L
  RBC: 4.92 10^12/L
[1]; [16]
  HCT: 0.34 L/L
  RBC: 4.21 10^12/L
[1]; [17]
  HCT: 0.38 L/L
  RBC: 4.96 10^12/L
[1]; 0.5 mg/kg, 24 hours, Male NHP
  HCT: 0.37 L/L
  RBC: 4.66 10^12/L
[1]; 0.5 mg/kg, 3 days, Female NHP
  HCT: 0.38 L/L
  RBC: 4.97 10^12/L
[1]; 0.5 mg/kg, 3 days, Male NHP
  HCT: 0.39 L/L
  RBC: 4.91 10^12/L
[1]; 0.5 mg/kg, 7 days, Female NHP
  HCT: 0.38 L/L
  RBC: 5.04 10^12/L
[1]; 0.5 mg/kg, 7 days, Male NHP
  HCT: 0.39 L/L
  RBC: 4.8 10^12/L
[1]; [18]
  HCT: 0.43 L/L
  RBC: 5.57 10^12/L
[1]; 0.5 mg/kg, Pre-dose, Male NHP
  HCT: 0.46 L/L
  RBC: 5.57 10^12/L
[1]; all dose groups
  neutrophils relative to pre-dose levels: increase in neutrophils
[2]; 0.005 mg/kg, 4 days, Female NHP
  IFN-alpha: 0 pg/mL
[2]; 0.005 mg/kg, 4 days, Male NHP
  IFN-alpha: 0 pg/mL
[2]; 0.005 mg/kg, Day 1 + 8 hr, Female NHP
  IFN-alpha: 0 pg/mL
[2]; 0.005 mg/kg, Day 1 + 8 hr, Male NHP
  IFN-alpha: 0 pg/mL
[2]; [9]
  IFN-alpha: 0 pg/mL
[2]; [10]
  IFN-alpha: 0 pg/mL
[2]; 0.05 mg/kg, 4 days, Female NHP
  IFN-alpha: 0 pg/mL
[2]; 0.05 mg/kg, 4 days, Male NHP
  IFN-alpha: 0 pg/mL
[2]; 0.05 mg/kg, Day 1 + 8 hr, Female NHP
  IFN-alpha: 0 pg/mL
[2]; 0.05 mg/kg, Day 1 + 8 hr, Male NHP
  IFN-alpha: 0 pg/mL
[2]; [14]
  IFN-alpha: 0 pg/mL
[2]; 0.05 mg/kg, Pre-dose, Male NHP
  IFN-alpha: 0 pg/mL
[2]; 0.5 mg/kg, 4 days, Female NHP
  IFN-alpha: 0 pg/mL
[2]; 0.5 mg/kg, 4 days, Male NHP
  IFN-alpha: 0 pg/mL
[2]; 0.5 mg/kg, Day 1 + 8 hr, Female NHP
  IFN-alpha: 529.2 pg/mL
[2]; 0.5 mg/kg, Day 1 + 8 hr, Male NHP
  IFN-alpha: 503.8 pg/mL
[2]; [18]
  IFN-alpha: 0 pg/mL
[2]; 0.5 mg/kg, Pre-dose, Male NHP
  IFN-alpha: 0 pg/mL

From patent US20190142971A1, “FORMULATION AND DELIVERY OF MODIFIED NUCLEOSIDE, NUCLEOTIDE, AND NUCLEIC ACID COMPOSITIONS” (ModernaTX, Inc., priority 2013, published 2019)
